Measurements as given in paper doi:10.1101/553800.

Target: hRIO2(1-321)Δ(131-146) (human) (UniProt Q9BVS4)
Assay: AUC

- percent dimer at 27 μM: > 20%
- stoichiometry N: 2
Substance: hRIO2(1-321)Δ(131-146) (from UniProt Q9BVS4 1-321) (domain or fragment)
